Measurements from the Human Domainome abundance scans (Beltran et al. 2025).
± gives the uncertainty stated by the source.

B1: POU domain, class 4, transcription factor 3, residues 185 to 256; numbered along this chain, Q15319 (parent)
chain: RELEAFAERFKQRRIKLGVTQADVGAALANLKIPGVGSLSQSTICRFESLTLSHNNMIALKPVLQAWLEEAE

Variants of: B1
Test: abundance fitness (aPCA) (normalised: wild type 0, dead -1); higher = more abundant; growth selection in yeast, the domain comes from the species named
Conditions: Homo sapiens
F47P showed an abundance fitness of -1.02 ± 0.13.
F47H gave an abundance fitness of -1.06 ± 0.33.
F47S showed an abundance fitness of -0.747 ± 0.081.
Work on F47I yielded an abundance fitness of -0.836 ± 0.17.
Variant F47W has an abundance fitness of -0.508 ± 0.066.
With F47C the abundance fitness was -0.982 ± 0.15.
F47T gave an abundance fitness of -0.94 ± 0.19.
For R13S, the abundance fitness was 0.08 ± 0.049.
With R13P the abundance fitness was -0.938 ± 0.28.
R13T gave an abundance fitness of 0.108 ± 0.072.
With R13D the abundance fitness was -0.234 ± 0.12.
With V19T the abundance fitness was -0.192 ± 0.039.
V19Y showed an abundance fitness of -0.01 ± 0.066.
V19Q showed an abundance fitness of -0.151 ± 0.055.
With V19P the abundance fitness was -0.835 ± 0.048.
In the case of N56I, the abundance fitness is reported as -0.157 ± 0.21.
Work on N56F yielded an abundance fitness of -0.628 ± 0.078.
N56Y showed an abundance fitness of -0.096 ± 0.28.
N56K showed an abundance fitness of -0.109 ± 0.24.
N56D showed an abundance fitness of -0.355 ± 0.41.
In the case of N56C, the abundance fitness is reported as -0.036 ± 0.25.
A59G gave an abundance fitness of -0.085 ± 0.18.
Work on A59S yielded an abundance fitness of -0.514 ± 0.4.
Variant A59L has an abundance fitness of -0.393 ± 0.39.
Variant G25L has an abundance fitness of -0.159 ± 0.097.
Work on G25V yielded an abundance fitness of 0.05 ± 0.069.
With G25E the abundance fitness was -0.054 ± 0.17.
Work on G25M yielded an abundance fitness of -0.27 ± 0.11.
In the case of G25H, the abundance fitness is reported as -0.269 ± 0.21.
Work on Q21W yielded an abundance fitness of -0.331 ± 0.094.
Work on Q21C yielded an abundance fitness of -0.243 ± 0.34.
Work on Q21R yielded an abundance fitness of -0.31 ± 0.17.
In the case of Q21V, the abundance fitness is reported as -0.002 ± 0.11.
Q21D showed an abundance fitness of -0.262 ± 0.42.
Work on Q21I yielded an abundance fitness of -0.035 ± 0.07.
E2M showed an abundance fitness of -0.437 ± 0.13.
Variant E2P has an abundance fitness of -0.345 ± 0.13.
Work on L3Y yielded an abundance fitness of -0.192 ± 0.1.
In the case of L3S, the abundance fitness is reported as -0.359 ± 0.36.
In the case of L68Y, the abundance fitness is reported as -0.287 ± 0.052.
L68Q showed an abundance fitness of -0.497 ± 0.047.
For L68W, the abundance fitness was -0.574 ± 0.041.
Variant I15H has an abundance fitness of -0.37 ± 0.19.
Work on I15Y yielded an abundance fitness of -0.32 ± 0.086.
For I15M, the abundance fitness was 0.024 ± 0.061.
I15P showed an abundance fitness of -0.915 ± 0.36.
With I15C the abundance fitness was -0.223 ± 0.1.
I15A gave an abundance fitness of -0.093 ± 0.15.
Work on I15T yielded an abundance fitness of 0.02 ± 0.1.
For I15V, the abundance fitness was -0.098 ± 0.055.
With I15E the abundance fitness was -0.067 ± 0.079.
With I15L the abundance fitness was -0.088 ± 0.044.
K16T gave an abundance fitness of -0.063 ± 0.033.
In the case of K16C, the abundance fitness is reported as 0.017 ± 0.051.
Variant K16P has an abundance fitness of -0.968 ± 0.049.
For K16V, the abundance fitness was -0.099 ± 0.042.
K16A showed an abundance fitness of 0.055 ± 0.039.
K16F showed an abundance fitness of -0.284 ± 0.058.
K16S showed an abundance fitness of 0.011 ± 0.027.
For K16G, the abundance fitness was -0.129 ± 0.042.
R14Q gave an abundance fitness of -0.45 ± 0.13.
For R14T, the abundance fitness was -1.15 ± 0.18.
For R14E, the abundance fitness was -0.95 ± 0.34.
With R14S the abundance fitness was -1.06 ± 0.12.
With R14L the abundance fitness was -0.805 ± 0.058.
With R14N the abundance fitness was -1.02 ± 0.25.
Variant R14F has an abundance fitness of -1.11 ± 0.22.
For R14M, the abundance fitness was -0.945 ± 0.084.
E69F showed an abundance fitness of -0.2 ± 0.06.
Work on E69T yielded an abundance fitness of -0.075 ± 0.04.
With E69N the abundance fitness was -0.06 ± 0.11.
E69C gave an abundance fitness of 0.006 ± 0.073.
For E69W, the abundance fitness was -0.232 ± 0.048.
Work on E69P yielded an abundance fitness of -0.672 ± 0.058.
With E69K the abundance fitness was -0.041 ± 0.05.
With A27F the abundance fitness was -0.283 ± 0.11.
A27W showed an abundance fitness of -0.202 ± 0.059.
A27C gave an abundance fitness of -0.266 ± 0.076.
A27E gave an abundance fitness of -0.123 ± 0.081.
A27K gave an abundance fitness of -0.126 ± 0.11.
Work on G37E yielded an abundance fitness of 0.038 ± 0.057.
With G37L the abundance fitness was -0.172 ± 0.11.
Work on G37Q yielded an abundance fitness of 0.003 ± 0.057.
Work on G37V yielded an abundance fitness of -0.039 ± 0.074.
Variant G37P has an abundance fitness of -0.055 ± 0.083.
Work on G37M yielded an abundance fitness of -0.153 ± 0.18.
Work on G37R yielded an abundance fitness of -0.063 ± 0.054.
Variant G37W has an abundance fitness of -0.669 ± 0.26.
Variant L64G has an abundance fitness of -0.836 ± 0.037.
In the case of L64Y, the abundance fitness is reported as -0.322 ± 0.069.
Work on L64C yielded an abundance fitness of -0.717 ± 0.084.
Variant L64R has an abundance fitness of -0.818 ± 0.055.
L64D gave an abundance fitness of -0.737 ± 0.084.
Variant L64N has an abundance fitness of -0.758 ± 0.11.
In the case of L64E, the abundance fitness is reported as -0.788 ± 0.049.
Variant A66D has an abundance fitness of -0.162 ± 0.24.
Work on A66P yielded an abundance fitness of -0.65 ± 0.14.
A66V showed an abundance fitness of -0.429 ± 0.2.
Work on A66Q yielded an abundance fitness of 0.042 ± 0.2.
Variant A66E has an abundance fitness of 0.053 ± 0.09.
E4C gave an abundance fitness of -0.17 ± 0.061.
Variant E4W has an abundance fitness of -0.222 ± 0.043.
In the case of E4F, the abundance fitness is reported as 0.03 ± 0.055.
For E4N, the abundance fitness was -0.11 ± 0.096.
Work on E4G yielded an abundance fitness of -0.197 ± 0.033.
Q65D showed an abundance fitness of -0.065 ± 0.15.
Variant Q65K has an abundance fitness of -0.011 ± 0.41.
L28K showed an abundance fitness of -0.915 ± 0.19.
For L28R, the abundance fitness was -1.06 ± 0.47.
Variant L28C has an abundance fitness of -0.443 ± 0.21.
With L28S the abundance fitness was -0.688 ± 0.12.
L28G gave an abundance fitness of -0.813 ± 0.22.
For I33V, the abundance fitness was -0.515 ± 0.32.
I33M showed an abundance fitness of -0.283 ± 0.1.
For I33K, the abundance fitness was -0.391 ± 0.11.
Work on I33L yielded an abundance fitness of 0.062 ± 0.045.
I33P gave an abundance fitness of -0.139 ± 0.13.
I33T gave an abundance fitness of -0.197 ± 0.14.
Work on R46Q yielded an abundance fitness of -0.011 ± 0.077.
R46H gave an abundance fitness of -0.056 ± 0.091.
With R46G the abundance fitness was 0.125 ± 0.097.
For R46S, the abundance fitness was 0.024 ± 0.06.
For T43I, the abundance fitness was -0.089 ± 0.41.
T43P gave an abundance fitness of -0.836 ± 0.064.
T43C gave an abundance fitness of -0.333 ± 0.23.
T43S showed an abundance fitness of -0.2 ± 0.055.
T43M showed an abundance fitness of -0.053 ± 0.086.
T43R showed an abundance fitness of -0.607 ± 0.11.
With T43A the abundance fitness was -0.148 ± 0.055.
Variant T43W has an abundance fitness of -0.382 ± 0.14.
P62Q gave an abundance fitness of -0.393 ± 0.049.
Work on P62L yielded an abundance fitness of -0.53 ± 0.028.
For P62W, the abundance fitness was -0.689 ± 0.047.
P62M showed an abundance fitness of -0.56 ± 0.046.
Variant P62A has an abundance fitness of -0.376 ± 0.043.
P62D gave an abundance fitness of -0.413 ± 0.081.
Work on P62R yielded an abundance fitness of -0.376 ± 0.036.
M57A showed an abundance fitness of -0.173 ± 0.11.
Work on M57S yielded an abundance fitness of -0.156 ± 0.14.
I58L showed an abundance fitness of 0.094 ± 0.065.
Variant I58A has an abundance fitness of -0.262 ± 0.32.
With I58P the abundance fitness was -1.06 ± 0.26.
With E70S the abundance fitness was -0.034 ± 0.032.
In the case of E70N, the abundance fitness is reported as 0.114 ± 0.056.
E70D showed an abundance fitness of -0.118 ± 0.069.
E70W showed an abundance fitness of -0.29 ± 0.038.
E70Y showed an abundance fitness of -0.245 ± 0.06.
In the case of E70V, the abundance fitness is reported as -0.307 ± 0.036.
With V24I the abundance fitness was -0.123 ± 0.051.
V24L showed an abundance fitness of -0.137 ± 0.024.
With V24H the abundance fitness was -0.917 ± 0.11.
In the case of V24A, the abundance fitness is reported as -0.142 ± 0.052.
For V24T, the abundance fitness was -0.565 ± 0.035.
In the case of L17I, the abundance fitness is reported as -0.359 ± 0.22.
Variant L17K has an abundance fitness of -0.466 ± 0.19.
In the case of L17M, the abundance fitness is reported as -0.099 ± 0.16.
With L17Y the abundance fitness was -0.448 ± 0.14.
L17Q gave an abundance fitness of -0.983 ± 0.34.
For E72W, the abundance fitness was -0.325 ± 0.037.
E72G gave an abundance fitness of -0.278 ± 0.037.
E72S gave an abundance fitness of -0.153 ± 0.028.
E72C gave an abundance fitness of -0.175 ± 0.051.
Variant E72K has an abundance fitness of -0.384 ± 0.052.
Q12N showed an abundance fitness of 0.189 ± 0.12.
For Q12P, the abundance fitness was -1.02 ± 0.17.
Q12L showed an abundance fitness of -0.066 ± 0.032.
In the case of H54Y, the abundance fitness is reported as -0.027 ± 0.38.
